Source: the nanobody polyreactivity screen of Harvey et al. (2022)

Test: yeast display, Sf9 membrane polyspecificity reagent, FACS + sequencing; frameworks hold sequencing errors
In short: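 Nanobodies from a synthetic yeast display library (Saccharomyces cerevisiae BJ5465), induced 36–48 hours with galactose, were stained 1 hour at 4 °C with 10% biotinylated, detergent-solubilized Sf9 membrane reagent, enriched on streptavidin microbeads, then FACS-sorted. Anti-HA (expression) and streptavidin (reagent binding) fluorescence set low and high (top ~1%) gates. Polyreactivity labels come from the gate of origin. Genes were colony-PCR amplified, MiSeq 2 × 250 sequenced and filtered by CDR length.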

QVQLVESGGGLVQAGGSLRLSCAASGRIFPPNAMGWSRQAPGKERELVAAITRGGSTYYADSVKGRFTISRDNAKNTVYLQMNSLKPEDTAVYYCATVPWYIKVGQKRNDYWGQGTQVTVSS
polyreactivity (PSR sort gate): high polyreactivity

QVQLVESGGGLVQAGGSLRLSCAASGRIFPPNAMGWYRQAPGKERELVAAITRGGSTNYADSVKGRFTISRDNAKNTVYLQMNSLKPEDTAVYYCAARGLRRQAPFYYWGQGTQVTVSS
polyreactivity (PSR sort gate): high polyreactivity

QVQLVESGGGLVQAGGSLRLSCAASGRIFPPNAMGWYRQAPGKERELVAGITPSGDTTYYADSVKGRFTISRDNAKNTVYIQMNSLKPEDTAVYYCAKDEVYADDRSALFDYWGQGTQVTVSS
polyreactivity (PSR sort gate): low polyreactivity

QVQLVESGGGLVQAGGSLRLSCAASGRIFPPNAMGWYRQAPGKERELVAGITSSGDTTYYADSVKGRFTISRDNAKNTDYLQMNSLKPEDTAVYYCAKDEVYADDRSALFDYWGQGTQVTVSS
polyreactivity (PSR sort gate): low polyreactivity

QVQLVESGGGLVQAGGSLRLSCAASGRIFPPYGMGWYRQAPGKERELVAGITSDGSTNYADSVKGRFTISRDNAKNTVYLQMNSLKPEDTAVYFCAADQGSWYYYPVYYYGGDYWGQGTQVTVSS
polyreactivity (PSR sort gate): low polyreactivity

QVQLVESGGGLVQAGGSLRLSCAASGRIFPRNVMGWYRQAPGKERELVAAISSRGTRTYYADSVKGRFTISRDNAKNTVYLQMYSLKPEDTAVYYCAADGPYEGYDYWGQGTQVTVSS
polyreactivity (PSR sort gate): high polyreactivity

QVQLVESGGGLVQAGGSLRLSCAASGRIFPRYAMGWYTQAPGKERELVAAITTGGSTYADSVKGRFTISRDNAKNTVYLQMNSLKPEDTAVYYCGVDGYVAFSPDRNNYWGQGTQVTVSA
polyreactivity (PSR sort gate): low polyreactivity

QVQLVESGGGLVQAGGSLRLSCAASGRIFPSNAMGWYRQAPGKERELVAAISVSGGSTYYADSVKGRFTISRDNAKNTVYLQMNSLKPEDTAVYYCAVRAWDPYTGKSDYWGQGTQVTVSS
polyreactivity (PSR sort gate): low polyreactivity

QVQLVESGGGLVQAGGSLRLSCAASGRIFPSYAMGSSRQAPGKEREFVAAITWSGTDTYYADSVQGRFTISRDNAKNTVYLQMTSLKPEDTAVYYCAAEEYVEVDTTAYDYWGQGTQVTVSS
polyreactivity (PSR sort gate): low polyreactivity

QVQLVESGGGLVQAGGSLRLSCAASGRIFPSYAMGWYRQAPGKERELVAAISSSSAGTYYADSVKGRFTISRDNAKNTVYLQMNSLKPEDTAVYYCAAASARYRQYKSYYYWGQGTQVTVSS
polyreactivity (PSR sort gate): high polyreactivity

QVQLVESGGGLVQAGGSLRLSCAASGRIFPSYAMGWYRQAPGKERELVATISSGGRTYYADSVKGRFTISRDNAKNTVYLQMNSLKPEDTEVYYCNADRTQDRNPYTYATFDYWGQGTQVTVSS
polyreactivity (PSR sort gate): low polyreactivity

QVQLVESGGGLVQAGGSLRLSCAASGRIFPTNAMGWYRQAPGKERELVAAIPVSGGSTYYADSVKGRFTISRDNAKKTVYLQMNSLKPEDTAVYYCAVDDRASVGSRLDHWGQGTQVTVSS
polyreactivity (PSR sort gate): low polyreactivity

QVQLVESGGGLVQAGGSLRLSCAASGRIFPVNAMGRYRQAPGKERELVATISSGDITNYADSVKGRFTISRDNAKNTVYLQMNSLKPEDTAVYYCNADTSYSEWGSWYYEYDYWGQGTQVTVSS
polyreactivity (PSR sort gate): low polyreactivity

QVQLVESGGGLVQAGGSLRLSCAASGRIFPVYAMGWYRQATGKERELVATISYSGSSTYYADSVKGRFTISRDNAKNTVYLQMNSLKPEDTAVYYCNADAFGPPGVQYYYWGQGTQVTVSS
polyreactivity (PSR sort gate): low polyreactivity

QVQLVESGGGLVQAGGSLRLSCAASGRIFPVYVMGWYRQAPGKEREFVASISWRGGSTFYADSVKGRFTISRDNAKNTVYLQMNSLKPEDTAVYYCAADYWSSDSSRGTMYYWGQGTQVTVSS
polyreactivity (PSR sort gate): low polyreactivity

QVQLVESGGGLVQAGGSLRLSCAASGRIFPYNAMGWYRPAPGKEREFVAAITWSGGSTYYADSVKGRFTISRDNAKNTVYLQMNCLKPEDTAVYYCAIRYPWQYNYWGQGTQVTVSS
polyreactivity (PSR sort gate): high polyreactivity

QVQLVESGGGLVQAGGSLRLSCAASGRIFPYNAMGWYRQAPGKERELVAAINWSGGSTYYADSVKGRFTISRDNAKNTVYLQMNSLKPEDTAVYYCAAVYRYNSDPDYDYWGQGTQVTVSS
polyreactivity (PSR sort gate): high polyreactivity

QVQLVESGGGLVQAGGSLRLSCAASGRIFPYYAMGWYRQAPGKERELVAAINWRGTRTYADSVKGRFTLSRDNAKNTVYLQMNSLKPEDTEVYYCAARTLYFSKYDYWGQGTQVTVSS
polyreactivity (PSR sort gate): high polyreactivity

QVQLVESGGGLVQAGGSLRLSCAASGRIFPYYAMGWYRQAPGKERELVAAITSGGTTYYADSVKGRFTISRDNAKNTVYLQMNSLKPEDTAVYYCNAVGTPVKISTDRGYWGQGTQVTVSS
polyreactivity (PSR sort gate): low polyreactivity

QVQLVESGGGLVQAGGSLRLSCAASGRIFPYYAMGWYRQAPGKERELVATITSGGSTYYADSVKGRFTISRDNAKNTVYLQMNSLKPEDTAVYYCAARYPSIYFYRYDYWGQGNQVTVSS
polyreactivity (PSR sort gate): high polyreactivity

QVQLVESGGGLVQAGGSLRLSCAASGRIFPYYAMGWYRQAPGKERELVAVISTRGGSTYYADSVKGRFTISRDNAKNTVYLQMNSLKPEDTAVYYCAAKSVYRMGYWGQGTQVTVSS
polyreactivity (PSR sort gate): high polyreactivity

QVQLVESGGGLVQAGGSLRLSCAASGRIFPYYVMGWYRQAPGKERELVAAISRSGSSTYYADSVKGRFTISRDNAKNTVYLQMNSLKPEDTAVYYCAADYNWSPYYTRGDYWGQGTQVTVSS
polyreactivity (PSR sort gate): high polyreactivity

QVQLVESGGGLVQAGGSLRLSCAASGRIFQINAMGWYRQAPGKERELVAAISWSDDTTYYADSVKGRFTISRDNAKNTVYLQMISLKPEDTAVYYCAAERGQDYSYSGDDDYWGQGTQVTVSS
polyreactivity (PSR sort gate): high polyreactivity

QVQLVESGGGLVQAGGSLRLSCAASGRIFQIYAMGWYRQAHGKERELVAAISSGGTTYYADSVKGRFTISRDNAKYTVYLLMNSLKPEDTAVYYCADASGYYRYDYWGQGTQVTVSS
polyreactivity (PSR sort gate): high polyreactivity

QVQLVESGGGLVQAGGSLRLSCAASGRIFQIYAMGWYRQAPGKERELVAAISGSTSYADSVKGRFTISRDNAKNTVYLQMNCLKPEDSAVYDCSALSLLPNGEYWGQGSQVTVSS
polyreactivity (PSR sort gate): low polyreactivity

QVQLVESGGGLVQAGGSLRLSCAASGRIFQIYAMGWYRQAPGKERELVAAISNRGGSTYYADSVKGRFTISRDNAKNTVYLQMNSLKPEDTAVYYCNATTGYGGYNYWGQGTQVTVSS
polyreactivity (PSR sort gate): low polyreactivity

QVQLVESGGGLVQAGGSLRLSCAASGRIFQIYAMGWYRQAPGKERELVATISSGTRTYYADSVKGRFTISRDNAKNTVYLQMNSLKPEDTAVYYCNTGLVYGYDYWGQGTQVTVSS
polyreactivity (PSR sort gate): high polyreactivity

QVQLVESGGGLVQAGGSLRLSCAASGRIFQKNAMGWNIQAPGKERELVAVISWSDGSTNYADSVKGRFTISRDNAKNTVYLQMNSLKPEDTAVYYCNAAPLEGTLYDSWGQGTQVTVSS
polyreactivity (PSR sort gate): low polyreactivity

QVQLVESGGGLVQAGGSLRLSCAASGRIFQKNAMGWYRQPPGKERELVAAISGSGSTTNYADSVKGRFTISRDNAKNTVDLQMNSLKPEDTAVFYCGTGKRGVSGRGFRYDYWGQGTQVTVSS
polyreactivity (PSR sort gate): high polyreactivity

QVQLVESGGGLVQAGGSLRLSCAASGRIFQKYAMGWSRQAPGKERELVAAISYGGGRTYYADSVKGRFTISRDNAKNTVYLQMNSLKPEDTAVYYCATDYKYAAPTVIESDYWGQGTQVTVSS
polyreactivity (PSR sort gate): high polyreactivity

QVQLVESGGGLVQAGGSLRLSCAASGRIFQPYALGWYRQAPGKEREWVAAITRRAGSTYYADSVQGRFTISRDNAKNTVYLQMNSLKPDDTAVYYCAARGLYWAYEMEYWGQGTQVTVSS
polyreactivity (PSR sort gate): low polyreactivity

QVQLVESGGGLVQAGGSLRLSCAASGRIFQPYAMGWYRPAPGKDRELVAAITRRAGSTYYADSVKGRFTISRDNAKYTVYLQMNSLKPEDTAVYYCAARGLYWAYEMEYWGQGTQVTVSS
polyreactivity (PSR sort gate): low polyreactivity

QVQLVESGGGLVQAGGSLRLSCAASGRIFQPYAMGWYRQAPGKERELVARITSGGSTYADSVKGRFTISRDNAKNTVYLQMNSLKPEDTAVYYCAVRYPWYYRGYAYDYWGQGTQVTVSS
polyreactivity (PSR sort gate): high polyreactivity

QVQLVESGGGLVQAGGSLRLSCAASGRIFQRNAMGWYRQAPGKEREFVAAITKSGGGTYADSVKGRFTISRDNAKNTVYLQMISLKPEDTAVYYCNVVPVWRPYSLINWQKHFGYWGQGTQVTVSS
polyreactivity (PSR sort gate): high polyreactivity

QVQLVESGGGLVQAGGSLRLSCAASGRIFQRNVMGWYRQAPGKERELVAAITGSGGSTYYADSLKGRFTISRDNAKNTVYLQMNSLKPEYTAVYYCAAKVYRGYDYWGQGTQVTVSS
polyreactivity (PSR sort gate): high polyreactivity

QVQLVESGGGLVQAGGSLRLSCAASGRIFQRYAMGWYRQAPGKERELVAAISSSGTTYYADSVKGRFTISRDNAKNTVYLQMNSLKPEDTAVYYCAATYYTSRISRRYGYWGQGTQVTVSS
polyreactivity (PSR sort gate): high polyreactivity

QVQLVESGGGLVQAGGSLRLSCAASGRIFQRYTMGWYRQAPGKEREFVAAITYSGGSTHYADSVKGRFTISRDNAKNTVYLQMNSLKPEDTAVYYCIADRYYGRGYGYWGQGTQVTVSS
polyreactivity (PSR sort gate): low polyreactivity

QVQLVESGGGLVQAGGSLRLSCAASGRIFQRYTMGWYRQAPGKEREFVAAITYSGGSTHYADSVKRRFTISRDNAKYTVYLQMNSLKPEDTAVYSCNARTSVLHDYWGQGTQVTVSS
polyreactivity (PSR sort gate): low polyreactivity

QVQLVESGGGLVQAGGSLRLSCAASGRIFQYYAMGWYRQAPGKERELVAAINSSGGRTYYADSVKGRFTISRDNAKNTVYLQMNSLKPEDTAVYYCNAVLSTRGMDYWGQGTQVTVSS
polyreactivity (PSR sort gate): high polyreactivity

QVQLVESGGGLVQAGGSLRLSCAASGRIFQYYAMGWYRQAPGKERELVAAISSAGSTYYADSVKGRFTISRDNAKNTVYLQMNSLKPEDTAVYYCAVGKQVLSYQNYYWGQGTQVTVSS
polyreactivity (PSR sort gate): low polyreactivity

QVQLVESGGGLVQAGGSLRLSCAASGRIFQYYAMGWYRQAPGKERELVAAITRSGGSTYYADSVNGRFTISRDNAKNTVYLQMNSLKPEDTAVYYCARTYWITNSKFRDYLGAYGGEYWGQGTQVTVSS
polyreactivity (PSR sort gate): high polyreactivity

QVQLVESGGGLVQAGGSLRLSCAASGRIFQYYAMGWYRQATGKERELVAAISRTGSPYYADSVKGRVTISRDNAKNTVSLQMNSLTPADTAVYFCAADYWPQSNRWVYFRYGYWGLGTQVTVSS
polyreactivity (PSR sort gate): high polyreactivity

QVQLVESGGGLVQAGGSLRLSCAASGRIFRANAMGWYRQAPGKERELVAAISTSGGSTTYADSVKGRFTISRDNAKNTVYLQMNCLKPEDTAVYYCAVDSWLKWRDKWVIRHDYWGQGTQVTVSS
polyreactivity (PSR sort gate): high polyreactivity
